Results as given in the supplement of paper PMC10126150.
± gives the standard deviation of the averaged measurements.

tested on: ATP; test: switch fluorescence ratio, 500 uM ATP over buffer (Cy3 cluster intensity, sum of 5 cycles each) (fold (ratio)); higher = stronger signal-on switching upon ATP binding; sequences stand for … in TCGTCGGCAGCGTCAGATGTGTATAAGAGACAGTTTTTTTTTTTTTTTTTTTTTTTTT…TC; details: aptamer strand: ATP DNA aptamer (quencher-CACCTGGGGGAGTATTGCGGAGGAAGG + anchor), 100 nM annealed; ATP concentration: 500 uM
Procedure, shortened: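 Cy3-labelled switching-strand clusters on a modified Illumina MiSeq flow-cell were annealed to 100 nM quencher-labelled ATP aptamer and imaged first in selection buffer, then after 15 min with 500 uM ATP at 22 °C. NaOH stripping and re-annealing separated each of five buffer/ATP cycles, and clusters outside 100-1000 RFU were excluded. The fluorescence ratio sums target-cycle Cy3 intensity over buffer-cycle Cy3 intensity per cluster and averages it per switch-domain sequence.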
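Further: ATP exposure 15 min at 22 °C before imaging.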

Sequence | switch fluorescence ratio
AAAAAAATGT | 1.054 ± 0.01
AAAAAAGAGA | 0.977 ± 0.046
AAAAAAGGGA | 0.995 ± 0.022
AAAAAAGTAG | 1.03 ± 0.012
AAAAAAGTTA | 1 ± 0.064
AAAAAATCGT | 1.02 ± 0.057
AAAAAATGGA | 1.01 ± 0.031
AAAAAATTAA | 1.04 ± 0.026
AAAAAATTTA | 0.996 ± 0.043
AAAAACAAAA | 1.04 ± 0.065
AAAAACATTT | 0.998 ± 0.051
AAAAACGCTG | 1.039 ± 0.0093
AAAAAGGGGA | 1 ± 0.032
AAAAAGGGGG | 1.02 ± 0.045
AAAAAGTATG | 1 ± 0.026
AAAAAGTCGG | 1.04 ± 0.029
AAAAAGTCTT | 1 ± 0.015
AAAAAGTTGG | 1.005 ± 0.0099
AAAAAGTTGT | 1 ± 0.028
AAAAATGTAT | 0.975 ± 0.019
AAAAATTTTA | 0.993 ± 0.026
AAAAATTTTG | 1.04 ± 0.056
AAAACAAAAT | 1.05 ± 0.026
AAAACAGTAA | 1.02 ± 0.032
AAAACGACCC | 1.11 ± 0.07

Sequence | switch fluorescence ratio
AAAACGATAT | 1.046 ± 0.0062
AAAACGGTTG | 1 ± 0.019
AAAACGTATA | 1.07 ± 0.039
AAAACTCTGT | 1.04 ± 0.015
AAAACTTATG | 1.026 ± 0.0033
AAAACTTTTG | 1.02 ± 0.038
AAAACTTTTT | 1.04 ± 0.051
AAAAGAAAGG | 0.985 ± 0.012
AAAAGACGTT | 1 ± 0.029
AAAAGAGCCC | 1.0191 ± 0.0008
AAAAGAGGGA | 0.999 ± 0.043
AAAAGATGGG | 1.02 ± 0.0016
AAAAGCTTTA | 0.983 ± 0.018
AAAAGGAAAG | 0.957 ± 0.037
AAAAGGAACT | 1.04 ± 0.044
AAAAGGAAGT | 1.01 ± 0.016
AAAAGGACTT | 0.994 ± 0.002
AAAAGGCTAA | 1 ± 0.0037
AAAAGGGCAG | 0.986 ± 0.031
AAAAGGGGTT | 1.02 ± 0.043
AAAAGGGTCG | 1.05 ± 0.087
AAAAGGGTTG | 0.99 ± 0.033
AAAAGTAAAG | 0.987 ± 0.033
AAAAGTACGA | 1.07 ± 0.011
AAAAGTACGC | 1.09 ± 0.11

Sequence | switch fluorescence ratio
AAAAGTGGGA | 1.03 ± 0.031
AAAAGTTACA | 1.027 ± 0.0092
AAAAGTTGGG | 1.01 ± 0.014
AAAAGTTTTG | 1.01 ± 0.011
AAAATAAGAG | 1.009 ± 0.0037
AAAATACAGA | 1.08 ± 0.17
AAAATAGATT | 1.032 ± 0.0078
AAAATATTTA | 1.02 ± 0.012
AAAATATTTG | 0.964 ± 0.011
AAAATCGACC | 1.08 ± 0.011
AAAATGCCAC | 1.04 ± 0.024
AAAATGCGAG | 1 ± 0.0062
AAAATGGGGG | 1 ± 0.03
AAAATTAGGA | 1.02 ± 0.069
AAAATTAGGT | 0.9779 ± 0.0093
AAAATTATTG | 1 ± 0.022
AAAATTCAGT | 0.9893 ± 0.0089
AAAATTTAGC | 0.964 ± 0.054
AAAATTTTGT | 1 ± 0.021
AAACAAGCTT | 1.02 ± 0.021
AAACAAGTTG | 1.02 ± 0.035
AAACACCGGG | 1.11 ± 0.031
AAACACGGTG | 1.19 ± 0.17
AAACAGGAGT | 1.008 ± 0.0037
AAACAGGGAG | 0.974 ± 0.075

Sequence | switch fluorescence ratio
AAACAGGGTA | 0.9906 ± 0.0079
AAACAGTTAT | 1.03 ± 0.042
AAACATTATT | 1 ± 0.063
AAACCATCCG | 1.63 ± 0.064
AAACCCGATA | 1.05 ± 0.025
AAACCGGGGT | 1.66 ± 0.94
AAACGCCATT | 1.13 ± 0.018
AAACGCTGCG | 1.02 ± 0.035
AAACGGGTCA | 0.983 ± 0.03
AAACGGTGTG | 1.03 ± 0.037
AAACGTAACG | 1.07 ± 0.029
AAACGTATGT | 0.9984 ± 0.0079
AAACGTTGCT | 1.19 ± 0.015
AAACTACTCT | 1.03 ± 0.02
AAACTAGAAG | 1.01 ± 0.019
AAACTGGATG | 0.9783 ± 0.0039
AAACTTCGCT | 1.27 ± 0.25
AAACTTGTAA | 1.01 ± 0.027
AAACTTTTTC | 1.02 ± 0.065
AAAGAAAAAA | 1.012 ± 0.0025
AAAGAAAGGA | 0.977 ± 0.032
AAAGAGAGAC | 1.0086 ± 0.00021
AAAGAGCTAG | 1 ± 0.053
AAAGAGGCGG | 1.006 ± 0.0013
AAAGAGGGGA | 1.03 ± 0.016
